Assay results taken from patent publication US6344321, “Nucleic acid ligands which bind to hepatocyte growth factor/scatter factor (HGF/SF) or its receptor c-met” (Gilead Sciences, Inc.).

Target: T1, HGF (hepatocyte growth factor/scatter factor) (UniProt P14210;P14210 P14210:32-494,P14210:495-728)
Assay: filter; HBSMC, 37C
Conditions: tags: R&D Systems
Procedure: (§1) In binding reactions, RNA concentrations were kept as low as possible—between 1 and 20 pM—to ensure equilibrium in conditions of protein excess. Oligonucleotides were incubated for 15 minutes at 37° C. with varying amounts of the protein in 43 µl of the binding buffer. Thirty-two microliters of each binding mixture placed on pre-wet 0.45 µm nitrocellulose filters under suction. Each well was immediately washed with 0.5 ml binding buffer. The amount of radioactivity retained on the filters was quantitated by imaging. The radioactivity that bound to filters in the absence of protein was used for background correction. The percentage of input oligonucleotide retained on each filter spot was plotted against the corresponding log protein concentration. The nonlinear least square method was used to obtain the dissociation constant (K_d; reference Jellinek, Lynott et al. 1993, Proc. Natl. Acad. Sci. USA. 90:11227–31).

T1 sequence (P14210 32-494, chain 1 of 2): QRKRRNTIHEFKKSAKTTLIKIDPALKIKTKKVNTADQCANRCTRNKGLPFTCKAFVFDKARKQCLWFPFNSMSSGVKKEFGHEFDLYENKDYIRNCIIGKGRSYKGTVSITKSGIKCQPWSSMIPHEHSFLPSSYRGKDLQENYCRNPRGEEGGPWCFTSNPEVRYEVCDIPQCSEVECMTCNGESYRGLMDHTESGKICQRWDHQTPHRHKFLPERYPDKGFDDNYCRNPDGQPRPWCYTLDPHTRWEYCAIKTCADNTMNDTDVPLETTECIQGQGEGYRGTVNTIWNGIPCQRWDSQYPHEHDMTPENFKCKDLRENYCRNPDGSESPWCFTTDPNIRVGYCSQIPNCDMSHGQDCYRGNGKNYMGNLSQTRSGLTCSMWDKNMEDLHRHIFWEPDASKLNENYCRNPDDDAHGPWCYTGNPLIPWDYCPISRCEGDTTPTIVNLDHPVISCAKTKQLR
T1 sequence (P14210 495-728, chain 2 of 2): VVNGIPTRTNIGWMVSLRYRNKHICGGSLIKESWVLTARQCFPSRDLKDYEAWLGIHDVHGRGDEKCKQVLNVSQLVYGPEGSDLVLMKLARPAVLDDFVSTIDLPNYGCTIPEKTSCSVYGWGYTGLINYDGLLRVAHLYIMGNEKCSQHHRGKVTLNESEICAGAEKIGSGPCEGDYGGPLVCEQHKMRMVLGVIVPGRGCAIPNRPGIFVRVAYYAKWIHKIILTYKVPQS

| Binder | Kd [nM] |
| --- | --- |
| 10-53 (ssRNA, 2'-F pyrimidines) RNA: GGGAGAUAAGAAUAAACGCUCAAGGCCUCCAACCGCUAAAGGUUCCAUUCUUGUUCGACAGGAGGCUCACAACAGGC | 0.31 |
| 8-203 (ssRNA, 2'-F pyrimidines) RNA: GGGAGGACGAUGCGGCGCGAGCCUAUUUAUGUCAUCAUGUCUGUGCAGACGACUCGCCCGA | 0.14 |
| 8-215 (ssRNA, 2'-F pyrimidines) RNA: GGGAGGACGAUGCGGCGUGAGCCUAUUUAUGUCAUCAUGUCUGGUCAGACGACUCGCCCGA | 0.077 |
| 8-222 (ssRNA, 2'-F pyrimidines) RNA: GGGAGGACGAUGCGGUGUGAACCUAUUUAUGCCAUUAUGUCUGUGCAGACGACUCGCCCGA | 0.13 |
| 10-18 (ssRNA, 2'-F pyrimidines) RNA: GGGAGAUAAGAAUAAACGCUCAACGUGAUUCCUACCAUCAGGUACCUAUCUUGUUCGACAGGAGGCUCACAACAGGC | 0.3 |
| 10-2 (ssRNA, 2'-F pyrimidines) RNA: GGGAGAUAAGAAUAAACGCUCAAGCCUGAGUUAAACAUGACGGUUUGUGACCCUUCGACAGGAGGCUCACAACAGGC | 0.069 |
| 10-23 (ssRNA, 2'-F pyrimidines) RNA: GGGAGAUAAGAAUAAACGCUCAAGUCUGAGUUGGACACAACGCAUUGAGACCCUUCGACAGGAGGCUCACAACAGGC | 0.33 |
| 10-8 (ssRNA, 2'-F pyrimidines) RNA: GGGAGAUAAGAAUAAACGCUCAAUUGACAAGGUACCUGUUGCCUGGCGUUUCUUUCGACAGGAGGCUCACAACAGGC | 0.92 |
| 10-48 (ssRNA, 2'-F pyrimidines) RNA: GGGAGAUAAGAAUAAACGCUCAAGAGUUCCCUGUUGACUCGCUCUCCUGACCCUUCGACAGGAGGCUCACAACAGGC | 0.31 |
| 10-31 (ssRNA, 2'-F pyrimidines) RNA: GGGAGAUAAGAAUAAACGCUCAAGGGUUCCUGAUUGACCCUGUCUCUAGACCCUUCGACAGGAGGCUCACAACAGGC | 1.9 |
| 10-47 (ssRNA, 2'-F pyrimidines) RNA: GGGAGAUAAGAAUAAACGCUCAAGUCAAGAGGAAAUGACACGGCUCCACUUUUAUUCGACAGGAGGCUCACAACAGGC | 0.39 |
| 8-160 (ssRNA, 2'-F pyrimidines) RNA: GGGAGGACGAUGCGGGUCCCCGAAUUUAAAGUGCGUUUUCCUCCGGGCAGACGACUCGCCCGA | 0.15 |
| 8-102 (ssRNA, 2'-F pyrimidines) RNA: GGGAGGACGAUGCGGCGAGUGCCUGUUUAUGUCAUCGUCCGUCGUCAGACGACUCGCCCGA | 0.06 |
| 10-49 (ssRNA, 2'-F pyrimidines) RNA: GGGAGAUAAGAAUAAACGCUCAACCCGACCUCCUGUAACUGGUUGAGGCACUAUUCGACAGGAGGCUCACAACAGGC | 0.24 |
| 11-203 (ssRNA, 2'-F pyrimidines) RNA: GGGAGGACGAUGCGGGGUUUUUCUUUUCUUGUUCUCUUCUUUCCCCCAGACGACUCGCCCGA | 0.26 |
| 10-37 (ssRNA, 2'-F pyrimidines) RNA: GGGAGAUAAGAAUAAACGCUCAAGUCUGAGUCCGUAGGGCGAUUUGUGUCCCUUCGACAGGAGGCUCACAACAGGC | 3.05 |
| 10-3 (ssRNA, 2'-F pyrimidines) RNA: GGGAGAUAAGAAUAAACGCUCAAGCCUGAGUUAAACAUGACGGGUUUUGUGACCCCUUUCGACAGGAGGCUCACAACAGGC | 0.072 |
| 10-57 (ssRNA, 2'-F pyrimidines) RNA: GGGAGAUAAGAAUAAACGCUCAACGAGCCUCCUACCGUUUAGGUACCAUCUUGUUCGACAGGAGGCUCACAACAGGC | 0.14 |

| Binder | Kd [nM] |
| --- | --- |
| 10-7 (ssRNA, 2'-F pyrimidines) RNA: GGGAGAUAAGAAUAAACGCUCAAUGCCUUAAGAGCGGAACUCCCUGACCCACCUUCGACAGGAGGCUCACAACAGGC | 1.45 |
| 10-11 (ssRNA, 2'-F pyrimidines) RNA: GGGAGAUAAGAAUAAACGCUCAACGCCUGGACCGUUUGUUUAUCCCCGUAGUCUUCGACAGGAGGCUCACAACAGGC | 0.61 |
| 10-76 (ssRNA, 2'-F pyrimidines) RNA: GGGAGAUAAGAAUAAACGCUCAAAGUUAGGCUUUAAAGCACGAUAAUCAGCAUUCGACAGGAGGCUCACAACAGGC | 0.17 |
| 10-28 (ssRNA, 2'-F pyrimidines) RNA: GGGAGAUAAGAAUAAACGCUCAACCUGUUCUGAACGCAAAAUGGCGUGGUGGCUUCGACAGGAGGCUCACAACAGGC | 0.86 |
| 10-72 (ssRNA, 2'-F pyrimidines) RNA: GGGAGAUAAGAAUAAACGCUCAAUGUGGCACUGUUGUCCACAAGGGCCUCAUUCGACAGGAGGCUCACAACAGGC | 0.45 |
| 10-1 (ssRNA, 2'-F pyrimidines) RNA: GGGAGAUAAGAAUAAACGCUCAAAGUGAUGUGAGAGCGUGCCUCUAGUCGGUGUUCGACAGGAGGCUCACAACAGGC | 0.094 |
| 10-63 (ssRNA, 2'-F pyrimidines) RNA: GGGAGAUAAGAAUAAACGCUCAAUGUGAUGUGAGGGCGUGCUUCCUAACGGUGUUCGACAGGAGGCUCACAACAGGC | 0.19 |
| 11-224 (ssRNA, 2'-F pyrimidines) RNA: GGGAGGACGAUGCGGACAGCGGCGACUAGCCUGUUCAUGCCUGCCCAGACGACUCGCCCGA | 0.11 |
| 10-29 (ssRNA, 2'-F pyrimidines) RNA: GGGAGAUAAGAAUAAACGCUCAAUCUGUUGGCGUCGUUCUCCUGACCCUCCUCUUCGACAGGAGGCUCACAACAGGC | 1.75 |
| 10-13 (ssRNA, 2'-F pyrimidines) RNA: GGGAGAUAAGAAUAAACGCUCAAGAUCUGUUGGCGUGUCUACCCGACCCUCCUUUCGACAGGAGGCUCACAACAGGC | 0.72 |
| 10-52 (ssRNA, 2'-F pyrimidines) RNA: GGGAGAUAAGAAUAAACGCUCAAUCUUAUUGUGUCCAGCUUCUCCCUGCAGGCUUCGACAGGAGGCUCACAACAGGC | 0.16 |
| 11-107 (ssRNA, 2'-F pyrimidines) RNA: GGGAGGACGAUGCGGGUUCUGUGUGUCCACGUUCUUACCCCUGUGCAGACGACUCGCCCGA | 0.14 |
| 10-40 (ssRNA, 2'-F pyrimidines) RNA: GGGAGAUAAGAAUAAACGCUCAAUGUCGUUAGUUUAUUGACAAGGCCCGAAGUUCGACAGGAGGCUCACAACAGGC | 0.35 |
| 10-58 (ssRNA, 2'-F pyrimidines) RNA: GGGAGAUAAGAAUAAACGCUCAAGGGGAGGCCCUUCAGCCGUCUCCUUGACCCUUCGACAGGAGGCUCACAACAGGC | 0.44 |
| 10-16 (ssRNA, 2'-F pyrimidines) RNA: GGGAGAUAAGAAUAAACGCUCAAUACAGCGUGUUGGUCCCGGACGGGGACUUAUUUCGACAGGAGGCUCACAACAGGC | 0.21 |
| 10-62 (ssRNA, 2'-F pyrimidines) RNA: GGGAGAUAAGAAUAAACGCUCAAGUUAGACUCAACAUGAGUCCCAGCCUCAAUUCGACAGGAGGCUCACAACAGGC | 0.44 |
| 10-27 (ssRNA, 2'-F pyrimidines) RNA: GGGAGAUAAGAAUAAACGCUCAAUUAGCCUCCGACCGUAAGGUCCUUUUCUUGUUCGACAGGAGGCUCACAACAGGC | 0.83 |
| 10-36 (ssRNA, 2'-F pyrimidines) RNA: GGGAGAUAAGAAUAAACGCUCAACGUUAGCAUCUGAACGAUGCCCAGCCUCAAUUCGACAGGAGGCUCACAACAGGC | 1.94 |

Target: T1, HGF (hepatocyte growth factor/scatter …)
Assay: filter; one or two 5' G
Conditions: tags: R&D Systems
Procedure: as §1

| Binder | Kd [nM] |
| --- | --- |
| GGUGAUCACCUGUUUAUGCCAUCGUUCUGGGCCA (ssRNA, 2'-F pyrimidines) [Tr48] | 1.8 |
| GGGGUGACCCUUUUUAUGACAUCGCGUCUGGCCA (ssRNA, 2'-F pyrimidines) [Tr28] | 4 |
| GGGUGACUCAAAAUGGUGAUCCUCGUUUCCGCCA (ssRNA, 2'-F pyrimidines) [Tr4] | 1.4 |
| GGAUUGAUUCACUGCAUCCUUGACUCUUCCCCCA (ssRNA, 2'-F pyrimidines) [Tr1] | 7.3 |
| GGGCGGCUCGAUGUCGUCUUAUCCCUUUGCCCCA (ssRNA, 2'-F pyrimidines) [Tr17] | 3 |
| GGGUUUGAGUGACGAUCGUCUUGUCCCAUGUGCA (ssRNA, 2'-F pyrimidines) [Tr15] | 8.8 |
| GGAGUGAUCCUAUUUAUGCCGUCGCUUCUCGCCA (ssRNA, 2'-F pyrimidines) [Tr44] | 6.5 |
| GGUGAAUUCCUCUGGCUGAAAAUGACUUGUGCCA (ssRNA, 2'-F pyrimidines) [Tr31] | 9.2 |
